Target: Human Prolactin Receptor (PrlR) (human) (UniProt P16471)
Test: cell-based or functional assay

UniProt P16471, sequence (P16471 25-622 limits assumed): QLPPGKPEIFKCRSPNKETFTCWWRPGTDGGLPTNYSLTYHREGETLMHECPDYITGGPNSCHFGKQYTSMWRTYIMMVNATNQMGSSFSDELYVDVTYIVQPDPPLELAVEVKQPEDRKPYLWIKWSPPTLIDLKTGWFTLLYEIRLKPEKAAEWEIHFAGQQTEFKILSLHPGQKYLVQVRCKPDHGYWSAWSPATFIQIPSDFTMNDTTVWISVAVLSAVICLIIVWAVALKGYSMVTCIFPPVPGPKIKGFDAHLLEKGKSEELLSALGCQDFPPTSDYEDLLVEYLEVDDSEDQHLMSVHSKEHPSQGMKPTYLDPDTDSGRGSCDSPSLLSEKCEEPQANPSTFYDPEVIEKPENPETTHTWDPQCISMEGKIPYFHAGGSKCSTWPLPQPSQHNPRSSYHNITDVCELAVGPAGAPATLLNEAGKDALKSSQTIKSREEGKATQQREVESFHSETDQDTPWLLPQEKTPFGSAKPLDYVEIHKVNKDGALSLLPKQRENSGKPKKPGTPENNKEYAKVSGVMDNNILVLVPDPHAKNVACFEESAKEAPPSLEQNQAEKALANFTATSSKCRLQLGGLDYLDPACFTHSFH

Prl receptor antagonist Prl Δ1-9 S33A, Q73L, G129R, K190R (SEQ ID NO: 13) (from UniProt P01236 38-227) (ligand)
Invasion (AU), U251 MG cells, CytoSelect Cell Invasion Assay, OD 560 nm; Prl 200 ng/ml + antagonist 200 ng/ml (control 0.380): 0.379 AU
Invasion (AU), U251 MG cells, CytoSelect Cell Invasion Assay, OD 560 nm; antagonist alone (control 0.380): 0.385 AU
